This data set in a line: total protein half-life in vivo (active degradation + dilution); higher = more stable protein.
Setting [1] is: E. coli NCM3722 delta-clpP delta-lon delta-hslV, growth: N-lim chemostat, doubling time 6 h.
Where [2] appears, read: E. coli NCM3722 delta-clpP, growth: N-lim chemostat, doubling time 6 h.
The mark [3] stands for this setting: E. coli NCM3722 delta-hslV, growth: N-lim chemostat, doubling time 6 h.
Where [4] appears, read: E. coli NCM3722 delta-lon, growth: N-lim chemostat, doubling time 6 h.
Setting [5] is: E. coli NCM3722 delta-smpB, growth: N-lim chemostat, doubling time 6 h.
Setting [6] is: wild type E. coli NCM3722, growth: C-lim chemostat, doubling time 3 h.
The mark [7] stands for this setting: wild type E. coli NCM3722, growth: C-lim chemostat, doubling time 6 h.
Where [8] appears, read: wild type E. coli NCM3722, growth: C-lim chemostat, doubling time 12 h.
[9] abbreviates: wild type E. coli NCM3722, growth: N-lim chemostat, doubling time 6 h.
The mark [10] stands for this setting: wild type E. coli NCM3722, growth: N-lim chemostat, doubling time 12 h.
Setting [11] is: wild type E. coli NCM3722, growth: P-lim chemostat, doubling time 6 h.
[12] abbreviates: wild type E. coli NCM3722, growth: P-lim chemostat, doubling time 12 h.

± gives the standard deviation of the averaged measurements.

In the case of “MAQGTLYIVSAPSGAGKSSLIQALLKTQPLYDTQVSVSHTTRQPRPGEVHGEHYFFVNHDEFKEMISRDAFLEHAEVFGNYYGTSREAIEQVLATGVDVFLDIDWQGAQQIRQKMPHARSIFILPPSKIELDRRLRGRGQDSEEVIAKRMAQAVAEMSHYAEYDYLIVNDDFDTALTDLKTIIRAERLRMSRQKQRHDALISKLLAD”, the “total protein half-life in vivo” value runs as follows: under setting [1], 4.92 ± 0.11 h; under setting [2], 4.94 ± 0.094 h; under setting [3], 4.492 ± 0.0085 h; under setting [4], 4.85 ± 0.71 h; under setting [5], 4.493 ± 0.03 h; under setting [6], 2.78 ± 0.075 h. Also, the “total protein half-life in vivo” value was found to be 6.12 ± 1.5 h under setting [7]; 8.87 ± 3.6 h under setting [8]; 5.11 ± 0.12 h under setting [9]; 8.324 ± 0.018 h under setting [10]; 5.66 ± 0.11 h under setting [11]; 11.8 ± 0.35 h under setting [12].

For “MTNYSLRARMMILILAPTVLIGLLLSIFFVVHRYNDLQRQLEDAGASIIEPLAVSTEYGMSLQNRESIGQLISVLHRRHSDIVRAISVYDENNRLFVTSNFHLDPSSMQLGSNVPFPRQLTVTRDGDIMILRTPIISESYSPDESPSSDAKNSQNMLGYIALELDLKSVRLQQYKEIFISSVMMLFCIGIALIFGWRLMRDVTGPIRNMVNTVDRIRRGQLDSRVEGFMLGELDMLKNGINSMAMSLAAYHEEMQHNIDQATSDLRETLEQMEIQNVELDLAKKRAQEAARIKSEFLANMSHELRTPLNGVIGFTRLTLKTELTPTQRDHLNTIERSANNLLAIINDVLDFSKLEAGKLILESIPFPLRSTLDEVVTLLAHSSHDKGLELTLNIKSDVPDNVIGDPLRLQQIITNLVGNAIKFTENGNIDILVEKRALSNTKVQIEVQIRDTGIGIPERDQSRLFQAFRQADASISRRHGGTGLGLVITQKLVNEMGGDISFHSQPNRGSTFWFHINLDLNPNIIIEGPSTQCLAGKRLAYVEPNSAAAQCTLDILSETPLEVVYSPTFSALPPAHYDMMLLGIAVTFREPLTMQHERLAKAVSMTDFLMLALPCHAQVNAEKLKQDGIGACLLKPLTPTRLLPALTEFCHHKQNTLLPVTDESKLAMTVMAVDDNPANLKLIGALLEDMVQHVELCDSGHQAVERAKQMPFDLILMDIQMPDMDGIRACELIHQLPHQQQTPVIAVTAHAMAGQKEKLLGAGMSDYLAKPIEEERLHNLLLRYKPGSGISSRVVTPEVNEIVVNPNATLDWQLALRQAAGKTDLARDMLQMLLDFLPEVRNKVEEQLVGENPEGLVDLIHKLHGSCGYSGVPRMKNLCQLIEQQLRSGTKEEDLEPELLELLDEMDNVAREASKILG [P0AEC5]”, the “total protein half-life in vivo” value by setting is: under setting [1], 6.36 ± 0.23 h; under setting [2], 5.96 ± 0.43 h; under setting [3], 6.35 ± 0.93 h; under setting [4], 6.05 ± 1.2 h; under setting [5], 5.8 ± 0.066 h; under setting [6], 3.45 ± 0.058 h. Moreover, the “total protein half-life in vivo” value is 5.985 ± 0.046 h under setting [7]; 10.5 ± 1.6 h under setting [8]; 13.1 ± 0.83 h under setting [10]; 6.32 ± 0.066 h under setting [11]; 11.4 ± 0.16 h under setting [12].

Regarding “MIVAFCLYKYFPFGGLQRDFMRIASTVAARGHHVRVYTQSWEGDCPKAFELIQVPVKSHTNHGRNAEYYAWVQNHLKEHPADRVVGFNKMPGLDVYFAADVCYAEKVAQEKGFLYRLTSRYRHYAAFERATFEQGKSTKLMMLTDKQIADFQKHYQTEPERFQILPPGIYPDRKYSEQIPNSREIYRQKNGIKEQQNLLLQVGSDFGRKGVDRSIEALASLPESLRHNTLLFVVGQDKPRKFEALAEKLGVRSNVHFFSGRNDVSELMAAADLLLHPAYQEAAGIVLLEAITAGLPVLTTAVCGYAHYIADANCGTVIAEPFSQEQLNEVLRKALTQSPLRMAWAENARHYADTQDLYSLPEKAADIITGGLDG”, the “total protein half-life in vivo” value is 6.84 ± 0.81 h under setting [1]; 7.01 ± 1.2 h under setting [2]; 6.71 ± 0.8 h under setting [3]; 5.95 ± 0.33 h under setting [4]; 5.9 ± 0.47 h under setting [5]; 3.115 ± 0.015 h under setting [6]. Further, the “total protein half-life in vivo” value came out at 6.72 ± 0.35 h under setting [7]; 11.8 ± 2.6 h under setting [8]; 6.2 ± 0.56 h under setting [9]; 12.3 ± 1.8 h under setting [10]; 6.25 ± 0.29 h under setting [11]; 12.2 ± 0.98 h under setting [12].

In the case of “MNNDVFPNKFKAALAAKQVQIGCWSALSNPISTEVLGLAGFDWLVLDGEHAPNDISTFIPQLMALKGSASAPVVRVPTNEPVIIKRLLDIGFYNFLIPFVETKEEAELAVASTRYPPEGIRGVSVSHRANMFGTVADYFAQSNKNITILVQIESQQGVDNVDAIAATEGVDGIFVGPSDLAAALGHLGNASHPDVQKAIQHIFNRASAHGKPSGILAPVEADARRYLEWGATFVAVGSDLGVFRSATQKLADTFKK”, the “total protein half-life in vivo” value by setting is: under setting [1], 4.58 ± 0.62 h; under setting [2], 4.02 ± 1.4 h; under setting [3], 2.99 ± 0.14 h; under setting [4], 3.19 h; under setting [5], 3.51 ± 0.42 h; under setting [6], 3.2103 ± 7.8e-05 h. In addition, the “total protein half-life in vivo” value runs as follows: under setting [7], 5.123 ± 0.023 h; under setting [8], 9.79 ± 0.92 h; under setting [9], 3.355 ± 0.022 h; under setting [10], 7.58 h; under setting [12], 11.6 ± 0.72 h.

For “MSNLAAMLRLPANLKSTQWQILAGPILILLILSMMVLPLPAFILDLLFTFNIALSIMVLLVAMFTQRTLEFAAFPTILLFTTLLRLALNVASTRIILMEGHTGAAAAGKVVEAFGHFLVGGNFAIGIVVFVILVIINFMVITKGAGRIAEVGARFVLDGMPGKQMAIDADLNAGLIGEDEAKKRRSEVTQEADFYGSMDGASKFVRGDAIAGILIMVINIVGGLLVGVLQHGMSMGHAAESYTLLTIGDGLVAQIPALVISTAAGVIVTRVSTDQDVGEQMVNQLFSNPSVMLLSAAVLGLLGLVPGMPNLVFLLFTAGLLGLAWWIRGREQKAPAEPKPVKMAENNTVVEATWNDVQLEDSLGMEVGYRLIPMVDFQQDGELLGRIRSIRKKFAQEMGFLPPVVHIRDNMDLQPARYRILMKGVEIGSGDAYPGRWLAINPGTAAGTLPGEATVDPAFGLNAIWIESALKEQAQIQGYTVVEASTVVATHLNHLISQHAAELFGRQEAQQLLDRVAQEMPKLTEDLVPGVVTLTTLHKVLQNLLDEKVPIRDMRTILETLAEHAPIQSDPHELTAVVRVALGRAITQQWFPGKDEVHVIGLDTPLERLLLQALQGGGGLEPGLADRLLAQTQEALSRQEMLGAPPVLLVNHALRPLLSRFLRRSLPQLVVLSNLELSDNRHIRMTATIGGK”, the “total protein half-life in vivo” value is, setting by setting: under setting [6], 2.13 ± 0.33 h; under setting [7], 3.87 h; under setting [8], 8.63 h; under setting [12], 14.5 h.

“MVSRRVQALLDQLRAQGIQDEQVLNALAAVPREKFVDEAFEQKAWDNIALPIGQGQTISQPYMVARMTELLELTPQSRVLEIGTGSGYQTAILAHLVQHVCSVERIKGLQWQARRRLKNLDLHNVSTRHGDGWQGWQARAPFDAIIVTAAPPEIPTALMTQLDEGGILVLPVGEEHQYLKRVRRRGGEFIIDTVEAVRFVPLVKGELA [P0A7A5]”: the “total protein half-life in vivo” value under setting [1] worked out at 5.04 ± 0.19 h; the “total protein half-life in vivo” value under setting [2] came to 3.95 ± 0.35 h; the “total protein half-life in vivo” value under setting [3] worked out at 4.65 ± 0.94 h; the “total protein half-life in vivo” value under setting [4] amounted to 4.71 ± 0.85 h; the “total protein half-life in vivo” value under setting [5] amounted to 3.64 ± 0.14 h; the “total protein half-life in vivo” value under setting [6] is 2.7898 ± 0.0014 h. Further, the “total protein half-life in vivo” value is, setting by setting: under setting [7], 4.83 ± 2.6 h; under setting [8], 8.88 ± 0.65 h; under setting [9], 3.85 ± 0.078 h; under setting [10], 6.43 ± 0.091 h; under setting [11], 5.57 ± 0.56 h; under setting [12], 10.2 ± 0.73 h.

The values are drawn from the supplement of paper PMC11246515.
